Measured values published in the Human Domainome abundance scans (Beltran et al. 2025).

B1: COUP transcription factor 1, residues 83 to 159; numbered along this chain, P10589 (parent)
chain: HIECVVCGDKSSGKHYGQFTCEGCKSFFKRSVRRNLTYTCRANRNCPIDQHHRNQCQYCRLKKCLKVGMRREAVQRG
B2: Neutrophil cytosol factor 2, residues 456 to 514; numbered along this chain, P19878 (parent)
chain: LKKGSQVEALFSYEATQPEDLEFQEGDIILVLSKVNEEWLEGECKGKVGIFPKVFVEDC

Variants of: B1
Experiment: abundance fitness (aPCA) (normalised: wild type 0, dead -1); higher = more abundant; growth selection in yeast, the domain comes from the species named
Details: Homo sapiens

Abundance fitness of substitutions, site by site:
G77: V -0.041, D 0.117, K 0.101, I -0.042, S 0.064, N -0.023, L -0.095, R -0.058, P -0.013, Y -0.257, H -0.004, W -0.23, M -0.017, T -0.016, E 0.06, A 0.12, Q 0.304, F -0.317, C -0.096
R76: T 0.025, F 0.097, C 0.082, A -0.13, L 0.024, S -0.048, Q 0.083, G 0.161, P -0.197, M -0.047, W 0.007, N 0.123, V -0.009, H 0.094, Y 0.046, D 0.221, E 0.11
Q75: M -0.114, H 0.222, G 0.084, E 0.104, N -0.115, R -0.159, S -0.023, P 0.034, I -0.077, D 0.211, K -0.071, Y -0.219, F -0.026, A 0.125, C -0.07, L -0.007, W -0.119
V74: N -0.061, W -0.3, Q -0.063, S -0.199, K -0.264, T -0.112, R -0.449, H -0.104, I -0.292, L -0.224, P -0.151, Y -0.353, M -0.185

Variants of: B2
Experiment: as above
Details: Homo sapiens

Abundance fitness: each site, then its substitutions
Q17: T 0.2, H -0.123, G 0.478, R 0.296, W -0.753, A 0.324, L -0.266, F -0.793, S 0.615, V -0.643, E -0.504, I -0.393, Y -0.09, N -0.093, P -1.03, C 0.148, K 0.796, M -0.27
S5: A 0.353, Q -0.365, K 0.309, Y 0.219, D 0.797, I -0.299, R -0.116, E 0.099, L -0.289, G -1.17, T -0.037, P -0.804, M 0.216, F 0.011, V -0.056
Q6: A -0.717, H 0.427, I -0.133, S -0.667, C -0.337, G -0.72, M 0.023, F 0.714, R 0.028, K 0.157, P -0.924, E -0.158, W 0.367, L 0.437, V 0.538
Y13: C -0.432, S -0.487, R 0.458, F -0.391, K -0.307, M 0.207, L -0.573, N -0.472, E -0.499, G -0.165, D -0.646, I -0.487, H -0.104, T -0.644, P -0.21, A -0.505, W -0.484
S12: I -0.069, C -0.595, Y -0.841, E -0.937, D -0.139, R -0.315, T -0.119, V -0.816, G -0.377, M -0.382, L -0.086, W -0.557, H -0.44, N -0.206, P -0.257, K -0.609
F11: A 0.567, R 0.145, G -0.176, V 0.035, M -0.084, N 0.029, L -0.314, I -0.772, K 0.153, S -0.333, T -0.347, W -0.392, E -0.572, C 0.418, Y -0.191
L10: G -0.57, P -0.539, T -0.528, W -0.92, M 0.116, V -0.609, N -0.226, K -0.611, S -0.789, R 0.046, E -0.667
K2: P 0.067, E -0.415, R 0.002, W -0.109, T 0.427, V -0.337, H 0.249, N 0.141, F 0.093, G -0.307, A 0.146, L -0.46, S -0.347, M -0.593
E14: T 0.319, H 0.236, A 0.059, C -0.301, Y -0.215, M -0.483, D -0.073, L -0.231, K 0.217, P 0.023, F -0.236, I -0.304, W -0.168, V 0.027, G -0.233, N 0.074, Q 0.068, R 0.096, S -0.123
A9: W -0.432, S -0.726, C 0.167, P 0.082, R -0.688, F -0.2, I -0.533, N -0.537, E -0.361, T -0.476, L -0.471, G -0.439, V -1.13, M -0.532
E8: S 0.048, A 0.164, F 0.452, P -0.363, G -0.093, Q 0.472, R 1.16, N 0.524, V 0.959, L 0.433, K 1.17, T 0.126, I 0.744, M 0.684
G4: F -0.312, I 0.575, K -0.193, A -0.695, V -0.452, W -0.84, P -0.208, D -0.031, C -0.371, Y -0.89, L -0.83, R -0.535
L1: V -0.294, N -0.024, K -0.529, I 0.114, E 0.143, G -0.053, M 0.035, W 0.161, Y 0.581, F 0.593, S -0.217, R 0.08
P18: G -0.613, L -0.801, T -0.599, K -0.558, S -0.587, Q -0.83, C -0.691, E -0.48, A -0.284, D 0.315, R -0.163, I -0.651, F -0.634, M -0.235, H -0.537, N -0.074, V -0.648
A15: H -0.954, W -0.48, F -0.606, P -0.005, G -0.152, Y -0.617, C -0.362, S 0.051, D -0.73, N -0.853, R -0.417, L -0.827, I -0.357, T -1.03
T16: N -0.304, K 0.397, G -0.192, R -0.457, L -0.076, M -0.164, W -0.651, C -0.426, F -0.609, H -0.617, S -0.153, Q -0.158, V -0.36, E -0.368, I -0.926, A -0.475, D -0.428
V7: R -0.343, P -0.506, T 0.249, M -0.99, A -0.662, I -0.805, D -0.907, L -0.633, G -0.67, S -0.287, F -0.414, W -0.999
K3: I 0.207, F -0.153, L -0.337, P 0.347, R -0.397, E -0.067, T -0.094, C 0.761, Y -0.479, M -0.005, S -0.474, A -0.483, W -0.781, D -0.366, V -0.033, G -0.714
